A word on the Kd: it is the constant that tells how readily two partners part at equilibrium. Read a high Kd as weaker binding.

The target of assay [1] is HIV-1 SF162 gp120 (HIV-1 strain SF162), P19550. Description: SPR (Biacore 3000); peptide over immobilized gp120. A general note: In SPR one partner is held on a chip, and binding of the other changes the refractive index at the surface.
In assay [2] the target is HIV-1 92UG037-08 gp120 (HIV-1 strain 92UG037-08). Description: SPR (Biacore 3000); peptide over immobilized gp120.

B1: HNG-105 (peptide)
peptide: RINNIPWSEAMM
modifications: not checked
In the case of B1, the values for the Kd in assay [1] and in assay [2] were 0.0705 µM and 1.84 µM, respectively.

B2: HNG-156 (peptide)
peptide: RINNIPWSEAMM
modifications: not checked
Consider B2, for which the Kd in assay [1] amounted to 0.009 µM; in assay [2], 0.0163 µM.

(Values after patent US20100216721A1.)
